Molecular target: Egr-1 (Zif268) zinc-finger protein (UniProt P18146 335-423)
Assay: fluorescence anisotropy

B1: 12-bp competitor duplex (dsDNA)
DNA 1: TATGTAGGCGGT
DNA 2: ACCGCCTACATA
Q: Which Kd does the source give for B1 here?
A: The Kd was 29 nM.

From PMC4494898
